Tests used:
[1] = biological target: T1, alpha-thrombin (Homo sapiens, UniProt P00734;P00734 P00734:328-363,P00734:364-622); assay: filter; ±0.3; Fbmax 65.3; same buffer, 22 C
[2] = biological target: T1, alpha-thrombin; assay: filter; ±0.3; Fbmax 80.6; same buffer, 22 C
[3] = biological target: T1, alpha-thrombin; assay: filter; truncated form; 2 mM MgSO4 buffer
[4] = biological target: T1, alpha-thrombin; assay: BLI; ±0.002; kon 91.9e4 M-1 s-1, koff 4.12e-4 s-1; RNA immobilized on streptavidin sensor; 20 mM Tris pH 7.5, 150 mM NaCl, 2 mM MgSO4, 2 mg/mL BSA, 0.1% Tween-20
[5] = biological target: T1, alpha-thrombin; assay: filter; ±0.9; Fbmax 84.5; same buffer, 22 C
[6] = biological target: T1, alpha-thrombin; assay: filter; NB, little or no binding; same buffer, 22 C
[7] = biological target: T1, alpha-thrombin; assay: filter; ±1.9; Fbmax 74.5; same buffer, 22 C
[8] = biological target: T1, alpha-thrombin; assay: filter; ±2.8; Fbmax 52.9; same buffer, 22 C
[9] = biological target: T1, alpha-thrombin; assay: filter; ±4.6; Fbmax 95.6; same buffer, 22 C
[10] = biological target: T1, alpha-thrombin; assay: filter; ±0.4; Fbmax 63.5; same buffer, 22 C
[11] = biological target: T1, alpha-thrombin; assay: filter; ±0.2; Fbmax 92.3; 20 mM Tris pH 7.5, 150 mM NaCl, 2 mM MgSO4, 50 ug/mL BSA, 22 C

B1: Clone 3 (ssRNA)
RNA: GGAGAGGGAAGGAGAACGAACCGGGACUCACAAGAUAGACAAUACUAAGUGACACAAAGCCCGG
Kd [1]: 2.4 nM

B2: Clone 2 (ssRNA)
RNA: GGAGAGGUAAGUAGAACGAGCCCGGCGUCACAAGAUAGACAAAACUAAGUGACACAAAGCCCGG
Kd [2]: 3.5 nM

GUGUUCACAAGAUAGAGUAGACUAAGUGACAC (ssRNA) [Truncated clone 9]
Kd [3]: 2 nM
Kd [4]: 0.448 nM

B3: Clone 4 (ssRNA)
RNA: GGAGAGGGAAGGAGAACGGCUGCGGAUAACAAGAUAGCAAAGACUAAGUGACACAAAGCCCGG
Kd [5]: 10 nM

B4: Clone 7 (ssRNA)
RNA: GGAGAGGGAAUGAUAACGAGCCCGAAGCUCGGAGAAGCACAGAAGCAAGUGACACAAAGCCCGG
binding result [6]: no binding

B5: Clone 6 (ssRNA)
RNA: GGAGAGGGAAGGAGAACGAGCCGGGACACUAAGGAACAUAAAAGUUAAGUGACACAAAGCCCGG
Kd [7]: 13.8 nM

B6: Clone 10 (ssRNA)
RNA: GGAGACGGAAGGAUAACGAGCGCUUUGACACAAGAUACAAUAUAGUAAGUGACACCAAGCCCGG
Kd [8]: 36.4 nM

B7: Clone 5 (ssRNA)
RNA: GGAGAGGUAGGAGAACGAGCCUACCGUAAGAGAACGAGCAGACUCAAGUGACACAAAGCCCGG
binding result [6]: no binding

B8: Clone 1 (ssRNA)
RNA: GGAGAGAGAAGGAGAACGAGCUGUUACUCACAAAAUAGCGAAGACUAAGUGACACAAAGCCCGG
Kd [9]: 44.7 nM

B9: Clone 8 (ssRNA)
RNA: GGAGAGCGAAGAGAACGAGCGGGAUUGCACAAGAUAGCGUAGACUAAGUGACACAAAGCCCGG
Kd [10]: 1.6 nM

B10: Clone 9 (ssRNA)
RNA: GGAGAGGGAAAGAGAACGAGCGGGUGUUCACAAGAUAGAGUAGACUAAGUGACACAAAGCCCGG
Kd [11]: 1.4 nM

From patent US20200002699 (published 2020)
